Measurements published in publication doi:10.1101/2024.12.02.626348 (bioRxiv, 2024).

B1: GST-Arl4D (natural protein, human, UniProt P49703 1-201, looked up)
chain: MGNHLTEMAPTASSFLPHFQALHVVVIGLDSAGKTSLLYRLKFKEFVQSVPTKGFNTEKIRVPLGGSRGITFQVWDVGGQEKLRPLWRSYTRRTDGLVFVVDAAEAERLEEAKVELHRISRASDNQGVPVLVLANKQDQPGALSAAEVEKRLAVRELAAATLTHVQGCSAVDGLGLQQGLERLYEMILKRKKAARGGKKRR
B2: His-Arl4D (natural protein, human, UniProt P49703 1-201, looked up)
chain: B1 chain

How the values were obtained:
Experiment in all cases: pull-down
His-Erk1 = His-Erk1 (human, UniProt P27361 1-379)
Chain of His-Erk1 (P27361 whole entry): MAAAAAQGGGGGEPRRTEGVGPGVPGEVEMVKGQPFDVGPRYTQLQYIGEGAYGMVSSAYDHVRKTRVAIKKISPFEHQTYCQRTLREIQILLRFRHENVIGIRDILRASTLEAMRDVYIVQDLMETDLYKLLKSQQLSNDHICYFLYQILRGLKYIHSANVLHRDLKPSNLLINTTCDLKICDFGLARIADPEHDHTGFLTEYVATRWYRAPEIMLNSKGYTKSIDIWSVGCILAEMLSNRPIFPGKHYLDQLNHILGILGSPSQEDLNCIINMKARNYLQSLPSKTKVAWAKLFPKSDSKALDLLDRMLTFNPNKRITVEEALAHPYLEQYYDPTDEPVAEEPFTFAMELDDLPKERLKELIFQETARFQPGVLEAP

GST-Erk2 = GST-Erk2 (human, UniProt P28482 1-360)
Chain of GST-Erk2 (P28482 whole entry): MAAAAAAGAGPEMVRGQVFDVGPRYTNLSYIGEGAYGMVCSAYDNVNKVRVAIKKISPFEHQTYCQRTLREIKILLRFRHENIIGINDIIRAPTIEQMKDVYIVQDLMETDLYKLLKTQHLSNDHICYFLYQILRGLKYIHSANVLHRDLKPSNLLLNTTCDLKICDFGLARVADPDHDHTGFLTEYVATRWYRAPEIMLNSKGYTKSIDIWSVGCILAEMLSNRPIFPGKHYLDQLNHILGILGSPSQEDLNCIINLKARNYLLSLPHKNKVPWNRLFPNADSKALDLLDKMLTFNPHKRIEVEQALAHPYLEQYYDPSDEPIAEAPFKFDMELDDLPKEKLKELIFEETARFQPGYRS

GST-Erk1 = GST-Erk1 (human, UniProt P27361 1-379)
Chain of GST-Erk1 (P27361 whole entry): as the sequence (P27361 whole entry) above

Binder	binding result (His-Erk1)	binding result (GST-Erk2)	binding result (GST-Erk1)
B1	binds		
B2		binds	binds
